Results taken from patent publication US20200024360A1 (Janssen / Centocor, published 2020).

What was measured:
[1] = target: T1, cynomolgus CD3ε on primary cynomolgus CD4+ T cells (cynomolgus monkey, UniProt Q95LI5 22-198); experiment: flow cytometry on primary cynomolgus CD4+ T cells (CD3e), anti-human IgG (H+L) Alexa Fluor 647
T1 construct: whole, on cells
Procedure: (§1) The resulting panel of anti-CD3 antibodies was tested for binding against cell-surface CD3ε on primary human T cells. To do this, binding of antibodies from expression supernatants was visualized using a polyclonal anti-human secondary antibody and analyzed by flow cytometry. Briefly, binding of anti-CD3 antibodies to cell-surface CD3E was assessed by flow cytometry using primary Human T lymphocytes purified by negative selection (Biological Specialty, Colmar, USA). Expression supernatants or purified antibodies were normalized to 10 μg/ml in media or FACS buffer (BD BioSciences), respectively. 2×10⁵ cells were aliquoted into wells of a 96 well round-bottomed plate (CoStar) for labeling. Antibodies in expression supernatant were added to cells and incubated for 45 min at 4° C. Following centrifugation at 1300 rpm for 3 min and removal of supernatant, 50 μL of anti-human IgG (H+L) Alexa Fluor 647 secondary antibody (Life technologies Inc.) was incubated with the cells at a final concentration of 10 μg/mL for 30 min at 4° C. away from direct light. Following washing and resuspension in 30 μL FACs buffer (BD BioSciences). Sample collection was performed on an Intellicyt HTFC system using ForeCyt software. Viable single cells were gated prior to analysis of binding using the green or red fixable live/dead dyes (Life Technologies Inc.) and forward/side scatter area and height parameters, respectively. Graphs were generated in GraphPad Prism version 5 using mean fluorescence intensity values.
Binding analysis of the anti-CD3 hits to primary cynomolgus CD4⁺ T cells was then tested in order to assess the retention of cross-reactivity. Purified CD4⁺ T cells from the peripheral blood of cynomolgus monkeys (Zen Bio, Triangle Research Park, USA were used). Assay protocols were similar to those described above.

[2] = target: T2, human PSMA (prostate specific membrane antigen), full length (human, UniProt Q04609 1-750); experiment: flow cytometry cell binding assay, bispecific antibody titrated on LNCaP cells (human PSMA)
T2 construct: On LNCaP or C4-2B cells (endogenous) or transduced HEK293F cells; also called FOLH1_HUMAN; hPSMA
Procedure: PSMA×CD3 bispecific antibodies were tested for binding to PSMA positive cell lines LNCAP, human PSMA-HEK, Chimpanzee-PSMA-HEK and Cynomolgous monkey PSMA-HEK. To assess the binding capabilities of the PSMA bispecific antibodies, the cell-binding assay was utilized (described previously). Briefly, PSMA expressing tumor cells are bound by bispecific antibodies at known concentrations and the bound antibody is detected by an anti-human kappa light chain PE conjugated detection reagent (Invitrogen). The Mean Fluorescents Intensity (MFI) is the measure of bound bispecific antibody. The MFI is converted to a relative EC₅₀. EC₅₀ is a commonly used dose-response curve, where the half maximal effective concentration or the EC₅₀ point is defined as the inflection point of the curve. EC₅₀ s were determined by measuring cell bound bispecific and known concentrations. […] The dose response curves were then diluted down to that of background or no bispecific binding. The inflection point of this curve reflects the EC₅₀ point. The calculated EC₅₀ is determined by taking the ug/ml amount of bispecific antibody at the EC₅₀ point and converting it to a molarity value based on the MW of the bispecific antibody. Bispecific antibodies were normalized for protein concentration and then incubated with the same number of cells expressing either human or cyno PSMA. The MFI at each concentration was collected by flow cytometry and plotted as a function of concentration. Data was transformed via log 10 and then plotted. Nonlinear regression of binding curves was done to determine EC₅₀ s. These relative values were used for ranking PSMA binding to target cells.
PSMA×CD3 bispecific antibodies were tested for binding to PSMA positive cell line, LNCAP, to PSMA negative cell line, PC3. To assess the binding capabilities of the PSMA bispecific antibodies, the cell-binding assay was utilized (described previously). Bispecific antibodies were normalized for protein concentration and then incubated with the same number of cells expressing either human or cyno PSMA. The MFI at each concentration was collected by flow cytometry and plotted as a function of concentration.

[3] = target: T3, human CD3ε on primary human T cells (human, UniProt P07766 23-207); experiment: flow cytometry on primary human T cells (cell-surface CD3e), anti-human IgG (H+L) Alexa Fluor 647; one intermediate concentration of the titration is shown
T3 construct: whole, on cells; Part of the TCR-CD3 complex on the cells; also called cell-surface CD3ε; CD3E
Procedure: as §1

T3 sequence (P07766 23-207): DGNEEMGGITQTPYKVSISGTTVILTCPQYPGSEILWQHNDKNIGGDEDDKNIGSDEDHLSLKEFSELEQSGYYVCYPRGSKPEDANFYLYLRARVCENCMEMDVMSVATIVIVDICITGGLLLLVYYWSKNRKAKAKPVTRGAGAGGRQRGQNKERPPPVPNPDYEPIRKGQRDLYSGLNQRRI
T1 sequence (Q95LI5 22-198): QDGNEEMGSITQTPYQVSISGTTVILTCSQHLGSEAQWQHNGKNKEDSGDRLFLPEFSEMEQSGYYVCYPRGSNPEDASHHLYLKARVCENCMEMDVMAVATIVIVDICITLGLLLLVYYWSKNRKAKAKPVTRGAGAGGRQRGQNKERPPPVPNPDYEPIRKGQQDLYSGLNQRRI
T2 sequence (Q04609 whole entry): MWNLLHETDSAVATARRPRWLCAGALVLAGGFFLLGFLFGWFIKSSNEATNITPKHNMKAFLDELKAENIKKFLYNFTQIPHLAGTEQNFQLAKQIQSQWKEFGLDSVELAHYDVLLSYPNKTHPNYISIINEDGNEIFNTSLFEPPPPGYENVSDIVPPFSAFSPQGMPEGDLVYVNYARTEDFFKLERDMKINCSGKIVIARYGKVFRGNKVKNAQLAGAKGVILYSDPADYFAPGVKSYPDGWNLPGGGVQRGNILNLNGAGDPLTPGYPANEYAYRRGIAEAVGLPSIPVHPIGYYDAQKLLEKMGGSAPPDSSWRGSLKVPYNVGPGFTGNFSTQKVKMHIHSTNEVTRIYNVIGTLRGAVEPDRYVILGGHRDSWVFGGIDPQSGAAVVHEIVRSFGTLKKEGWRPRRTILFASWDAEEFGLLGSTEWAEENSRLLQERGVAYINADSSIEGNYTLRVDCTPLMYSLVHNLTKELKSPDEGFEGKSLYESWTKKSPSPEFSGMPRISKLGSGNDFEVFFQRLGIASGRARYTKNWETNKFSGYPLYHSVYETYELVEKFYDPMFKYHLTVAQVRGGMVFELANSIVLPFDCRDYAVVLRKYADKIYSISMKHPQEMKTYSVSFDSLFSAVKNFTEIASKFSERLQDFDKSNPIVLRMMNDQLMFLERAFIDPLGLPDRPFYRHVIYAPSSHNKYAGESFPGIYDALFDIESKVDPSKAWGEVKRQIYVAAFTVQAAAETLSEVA

| Binder | binding result [1] | binding result [2] | binding result [3] |
| --- | --- | --- | --- |
| CD3B124 (antibody, V domains shown, also called chimeric SP34-derived antibody) VH: EVKLLESGGGLVQPKGSLKLSCAASGFTFNTYAMNWVRQAPGKGLEWVARIRSKYNNYATYYADSVKDRFTISRDDSQSILYLQMNNLKTEDTAMYYCVRHGNFGNSYVSWFAYWGQGTLVTVSA VL: QAVVTQESALTTSPGETVTLTCRSSTGAVTTSNYANWVQEKPDHLFTGLIGGTNKRAPGVPARFSGSLIGDKAALTITGAQTEDEAIYFCALWYSNLWVFGGGTKLTVL | binds |  |  |
| PS3B72 (bispecific antibody, human IgG4 S228P, kappa, lambda, F234A L235A, IgG4 PAA; PSMA arm first, then CD3 arm (F405L, R409K); also called PSMB360 x CD3B219) heavy 1: not shown light 1: not shown heavy 2: EVQLVESGGGLVQPGGSLRLSCAASGFTFNTYAMNWVRQAPGKGLEWVARIRSKYNNYATYYAASVKGRFTISRDDSKNSLYLQMNSLKTEDTAVYYCARHGNFGNSYVSWFAYWGQGTLVTVSSASTKGPSVFPLAPCSRSTSESTAALGCLVKDYFPEPVTVSWNSGALTSGVHTFPAVLQSSGLYSLSSVVTVPSSSLGTKTYTCNVDHKPSNTKVDKRVESKYGPPCPPCPAPEAAGGPSVFLFPPKPKDTLMISRTPEVTCVVVDVSQEDPEVQFNWYVDGVEVHNAKTKPREEQFNSTYRVVSVLTVLHQDWLNGKEYKCKVSNKGLPSSIEKTISKAKGQPREPQVYTLPPSQEEMTKNQVSLTCLVKGFYPSDIAVEWESNGQPENNYKTTPPVLDSDGSFLLYSKLTVDKSRWQEGNVFSCSVMHEALHNHYTQKSLSLSLGK light 2: QTVVTQEPSLTVSPGGTVTLTCRSSTGAVTTSNYANWVQQKPGQAPRGLIGGTNKRAPGTPARFSGSLLGGKAALTLSGVQPEDEAEYYCALWYSNLWVFGGGTKLTVLGQPKAAPSVTLFPPSSEELQANKATLVCLISDFYPGAVTVAWKADSSPVKAGVETTTPSKQSNNKYAASSYLSLTPEQWKSHRSYSCQVTHEGSTVEKTVAPTECS |  | binds |  |
| PS3B73 (bispecific antibody, human IgG4 S228P, kappa, lambda, F234A L235A, IgG4 PAA; PSMA arm first, then CD3 arm (F405L, R409K); also called PSMB361 x CD3B219) heavy 1: not shown light 1: not shown heavy 2: EVQLVESGGGLVQPGGSLRLSCAASGFTFNTYAMNWVRQAPGKGLEWVARIRSKYNNYATYYAASVKGRFTISRDDSKNSLYLQMNSLKTEDTAVYYCARHGNFGNSYVSWFAYWGQGTLVTVSSASTKGPSVFPLAPCSRSTSESTAALGCLVKDYFPEPVTVSWNSGALTSGVHTFPAVLQSSGLYSLSSVVTVPSSSLGTKTYTCNVDHKPSNTKVDKRVESKYGPPCPPCPAPEAAGGPSVFLFPPKPKDTLMISRTPEVTCVVVDVSQEDPEVQFNWYVDGVEVHNAKTKPREEQFNSTYRVVSVLTVLHQDWLNGKEYKCKVSNKGLPSSIEKTISKAKGQPREPQVYTLPPSQEEMTKNQVSLTCLVKGFYPSDIAVEWESNGQPENNYKTTPPVLDSDGSFLLYSKLTVDKSRWQEGNVFSCSVMHEALHNHYTQKSLSLSLGK light 2: QTVVTQEPSLTVSPGGTVTLTCRSSTGAVTTSNYANWVQQKPGQAPRGLIGGTNKRAPGTPARFSGSLLGGKAALTLSGVQPEDEAEYYCALWYSNLWVFGGGTKLTVLGQPKAAPSVTLFPPSSEELQANKATLVCLISDFYPGAVTVAWKADSSPVKAGVETTTPSKQSNNKYAASSYLSLTPEQWKSHRSYSCQVTHEGSTVEKTVAPTECS |  | binds |  |
| PS3B74 (bispecific antibody, human IgG4 S228P, kappa, lambda, F234A L235A, IgG4 PAA; PSMA arm first, then CD3 arm (F405L, R409K); also called PSMB362 x CD3B219) heavy 1: not shown light 1: not shown heavy 2: EVQLVESGGGLVQPGGSLRLSCAASGFTFNTYAMNWVRQAPGKGLEWVARIRSKYNNYATYYAASVKGRFTISRDDSKNSLYLQMNSLKTEDTAVYYCARHGNFGNSYVSWFAYWGQGTLVTVSSASTKGPSVFPLAPCSRSTSESTAALGCLVKDYFPEPVTVSWNSGALTSGVHTFPAVLQSSGLYSLSSVVTVPSSSLGTKTYTCNVDHKPSNTKVDKRVESKYGPPCPPCPAPEAAGGPSVFLFPPKPKDTLMISRTPEVTCVVVDVSQEDPEVQFNWYVDGVEVHNAKTKPREEQFNSTYRVVSVLTVLHQDWLNGKEYKCKVSNKGLPSSIEKTISKAKGQPREPQVYTLPPSQEEMTKNQVSLTCLVKGFYPSDIAVEWESNGQPENNYKTTPPVLDSDGSFLLYSKLTVDKSRWQEGNVFSCSVMHEALHNHYTQKSLSLSLGK light 2: QTVVTQEPSLTVSPGGTVTLTCRSSTGAVTTSNYANWVQQKPGQAPRGLIGGTNKRAPGTPARFSGSLLGGKAALTLSGVQPEDEAEYYCALWYSNLWVFGGGTKLTVLGQPKAAPSVTLFPPSSEELQANKATLVCLISDFYPGAVTVAWKADSSPVKAGVETTTPSKQSNNKYAASSYLSLTPEQWKSHRSYSCQVTHEGSTVEKTVAPTECS |  | binds |  |
| PS3B75 (bispecific antibody, human IgG4 S228P, kappa, lambda, F234A L235A, IgG4 PAA; PSMA arm first, then CD3 arm (F405L, R409K); also called PSMB363 x CD3B219) heavy 1: not shown light 1: not shown heavy 2: EVQLVESGGGLVQPGGSLRLSCAASGFTFNTYAMNWVRQAPGKGLEWVARIRSKYNNYATYYAASVKGRFTISRDDSKNSLYLQMNSLKTEDTAVYYCARHGNFGNSYVSWFAYWGQGTLVTVSSASTKGPSVFPLAPCSRSTSESTAALGCLVKDYFPEPVTVSWNSGALTSGVHTFPAVLQSSGLYSLSSVVTVPSSSLGTKTYTCNVDHKPSNTKVDKRVESKYGPPCPPCPAPEAAGGPSVFLFPPKPKDTLMISRTPEVTCVVVDVSQEDPEVQFNWYVDGVEVHNAKTKPREEQFNSTYRVVSVLTVLHQDWLNGKEYKCKVSNKGLPSSIEKTISKAKGQPREPQVYTLPPSQEEMTKNQVSLTCLVKGFYPSDIAVEWESNGQPENNYKTTPPVLDSDGSFLLYSKLTVDKSRWQEGNVFSCSVMHEALHNHYTQKSLSLSLGK light 2: QTVVTQEPSLTVSPGGTVTLTCRSSTGAVTTSNYANWVQQKPGQAPRGLIGGTNKRAPGTPARFSGSLLGGKAALTLSGVQPEDEAEYYCALWYSNLWVFGGGTKLTVLGQPKAAPSVTLFPPSSEELQANKATLVCLISDFYPGAVTVAWKADSSPVKAGVETTTPSKQSNNKYAASSYLSLTPEQWKSHRSYSCQVTHEGSTVEKTVAPTECS |  | binds |  |
| CD3B150 (antibody, V domains shown, also called CD3H142/CD3L66; CD3B50) VH: EVQLLESGGGLVQPGGSLRLSCAASGFTFNTYAMNWVRQAPGKGLEWVARIRSKYNNYATYYADSVKGRFTISRDNSKNTLYLQMNSLRAEDTAVYYCAKHGNFGNSYVSWFAYWGQGTLVTVSS VL: QTVVTQEPSLTVSPGGTVTLTCRSSTGAVTTSNYANWVQQKPGQAPRGLIGGTNKRAPGTPARFSGSLLGGKAALTLSGVQPEDEAEYYCALWYSNLWVFGGGTKLTVL | binds |  | binds |
| CD3B148 (antibody, V domains shown, also called CD3H142/CD3L64) VH: EVQLLESGGGLVQPGGSLRLSCAASGFTFNTYAMNWVRQAPGKGLEWVARIRSKYNNYATYYADSVKGRFTISRDNSKNTLYLQMNSLRAEDTAVYYCAKHGNFGNSYVSWFAYWGQGTLVTVSS VL: QSVLTQPPSVSAAPGQKVTISCRSSTGAVTTSNYANWVQQLPGTAPKGLIGGTNKRAPGIPDRFSGSKSGTSATLGITGLQTGDEADYYCALWYSNLWVFGGGTKLTVL |  |  | binds |
| CD3B143 (antibody, V domains shown, also called CD3H141/CD3L63) VH: EVQLVESGGGLVQPGGSLRLSCAASGFTFNTYAMNWVRQAPGKGLEWVARIRSKYNNYATYYAASVKGRFTISRDDSKNSLYLQMNSLKTEDTAVYYCARHGNFGNSYVSWFAYWGQGTLVTVSS VL: QAVVTQEPSLTVSPGGTVTLTCRSSTGAVTTSNYANWVQQKPGQAPRGLIGGTNKRAPGTPARFSGSLLGGKAALTLSGAQPEDEAEYYCALWYSNLWVFGGGTKLTVL | binds |  | binds |
| CD3B146 (antibody, V domains shown, also called CD3H141/CD3L66) VH: EVQLVESGGGLVQPGGSLRLSCAASGFTFNTYAMNWVRQAPGKGLEWVARIRSKYNNYATYYAASVKGRFTISRDDSKNSLYLQMNSLKTEDTAVYYCARHGNFGNSYVSWFAYWGQGTLVTVSS VL: QTVVTQEPSLTVSPGGTVTLTCRSSTGAVTTSNYANWVQQKPGQAPRGLIGGTNKRAPGTPARFSGSLLGGKAALTLSGVQPEDEAEYYCALWYSNLWVFGGGTKLTVL | binds |  | binds |
